Consider one substance from US20170082609A1.

Some results are limits rather than exact numbers.

Assay [1] deals with CDHR3 Cys529→Tyr variant (human) (UniProt Q6ZTQ4). The experiment in a line: cell-based or functional assay.
Assay [2] shares this target. The assay can be described thus: virus bound to HeLa-E8 monolayers, viral RNA by real-time PCR. In general terms: Real-time PCR tracks product formation cycle by cycle.
For assay [3] the target is unchanged. The assay can be described thus: virus bound to HeLa-E8 cells 2 h p.i., viral RNA by real-time PCR.

UniProt Q6ZTQ4, sequence (Q6ZTQ4 other isoform, or with tags, fused parts or gaps mutant): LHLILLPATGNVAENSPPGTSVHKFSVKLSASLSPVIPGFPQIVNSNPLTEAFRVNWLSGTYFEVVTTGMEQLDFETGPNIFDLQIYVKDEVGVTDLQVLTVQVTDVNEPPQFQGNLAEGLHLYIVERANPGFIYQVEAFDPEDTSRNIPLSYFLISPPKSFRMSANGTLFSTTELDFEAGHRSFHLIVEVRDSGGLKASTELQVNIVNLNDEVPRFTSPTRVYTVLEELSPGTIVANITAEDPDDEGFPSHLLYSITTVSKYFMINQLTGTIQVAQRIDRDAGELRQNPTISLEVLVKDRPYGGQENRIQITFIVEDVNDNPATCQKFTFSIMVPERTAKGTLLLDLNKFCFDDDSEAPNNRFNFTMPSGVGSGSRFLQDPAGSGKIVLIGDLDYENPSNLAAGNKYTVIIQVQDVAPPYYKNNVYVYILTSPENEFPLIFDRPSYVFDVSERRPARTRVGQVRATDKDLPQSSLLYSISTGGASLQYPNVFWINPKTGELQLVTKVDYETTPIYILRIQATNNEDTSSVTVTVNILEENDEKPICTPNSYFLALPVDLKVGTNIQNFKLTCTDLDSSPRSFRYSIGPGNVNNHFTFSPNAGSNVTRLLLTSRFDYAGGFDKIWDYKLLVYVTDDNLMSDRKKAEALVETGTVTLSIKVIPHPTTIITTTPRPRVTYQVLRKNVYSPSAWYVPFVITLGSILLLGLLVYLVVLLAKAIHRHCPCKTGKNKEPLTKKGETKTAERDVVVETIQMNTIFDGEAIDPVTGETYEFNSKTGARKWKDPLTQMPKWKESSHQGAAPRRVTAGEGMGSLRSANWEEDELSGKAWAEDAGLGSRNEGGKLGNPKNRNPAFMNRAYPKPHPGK

Substance HeLa-E8 adapted RV-C15 (RV-C15a) showed a replication in HeLa-E8 compared to control HeLa cells (orders of magnitude) in assay [1] of 2. For the same substance, the fold increase of virus binding against the parental isolate in assay [2] is over 10 fold. Further, the binding compared to that of RV-C15-wt in assay [3] is over 1 log.
